Results on five sequences are retold here after patent US20220396813.

Holding throughout (experiment): cell_activity
Data set [1] concerns T1, Rec21 WP_010365336.1 (Pseudoalteromonas citrea).
T1 sequence: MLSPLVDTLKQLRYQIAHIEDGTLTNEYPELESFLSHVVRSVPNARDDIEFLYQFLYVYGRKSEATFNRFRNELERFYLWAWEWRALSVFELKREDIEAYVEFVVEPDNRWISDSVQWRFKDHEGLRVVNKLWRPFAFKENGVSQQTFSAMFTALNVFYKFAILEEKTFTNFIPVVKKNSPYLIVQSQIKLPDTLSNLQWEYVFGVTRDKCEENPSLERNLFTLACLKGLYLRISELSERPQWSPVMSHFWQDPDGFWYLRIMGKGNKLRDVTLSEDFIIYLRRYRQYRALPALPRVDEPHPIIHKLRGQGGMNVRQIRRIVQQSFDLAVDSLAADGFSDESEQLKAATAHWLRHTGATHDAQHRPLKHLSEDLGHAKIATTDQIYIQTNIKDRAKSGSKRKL
To be noted: HEK293T inversion; background 4.91.

In data set [2] the test system is T2, Rec24 WP_046407494.1 (Sphingomonas sp.).
T2 sequence: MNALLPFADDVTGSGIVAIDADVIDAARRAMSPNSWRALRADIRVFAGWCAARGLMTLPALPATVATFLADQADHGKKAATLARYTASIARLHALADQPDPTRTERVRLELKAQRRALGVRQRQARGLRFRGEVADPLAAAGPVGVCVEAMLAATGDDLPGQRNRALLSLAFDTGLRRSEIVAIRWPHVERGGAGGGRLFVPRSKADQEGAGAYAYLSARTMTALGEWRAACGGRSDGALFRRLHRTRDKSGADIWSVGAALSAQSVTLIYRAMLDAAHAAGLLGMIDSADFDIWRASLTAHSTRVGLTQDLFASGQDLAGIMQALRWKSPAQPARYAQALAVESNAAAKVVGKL
To be noted: HEK293T inversion; background 2.34.

In data set [3] the test system is T3, Rec18 WP_007635552.1 (Paraglaciecola psychrophila).
T3 sequence: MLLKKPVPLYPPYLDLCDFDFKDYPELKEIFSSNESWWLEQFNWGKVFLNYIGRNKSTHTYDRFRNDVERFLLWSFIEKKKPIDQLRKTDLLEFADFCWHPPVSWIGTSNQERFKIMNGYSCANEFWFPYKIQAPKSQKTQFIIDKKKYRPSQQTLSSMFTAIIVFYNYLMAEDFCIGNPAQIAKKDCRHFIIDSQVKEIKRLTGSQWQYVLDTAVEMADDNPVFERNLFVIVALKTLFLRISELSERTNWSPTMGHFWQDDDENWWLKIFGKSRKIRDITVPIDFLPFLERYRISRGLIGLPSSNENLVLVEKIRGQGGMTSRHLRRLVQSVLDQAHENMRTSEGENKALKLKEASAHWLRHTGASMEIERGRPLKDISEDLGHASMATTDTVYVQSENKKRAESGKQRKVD
To be noted: HEK293T inversion; background 1.255.

Data set [4] relates to T4, Rec23 WP_047824597.1 (Croceicoccus naphthovorans).
T4 sequence: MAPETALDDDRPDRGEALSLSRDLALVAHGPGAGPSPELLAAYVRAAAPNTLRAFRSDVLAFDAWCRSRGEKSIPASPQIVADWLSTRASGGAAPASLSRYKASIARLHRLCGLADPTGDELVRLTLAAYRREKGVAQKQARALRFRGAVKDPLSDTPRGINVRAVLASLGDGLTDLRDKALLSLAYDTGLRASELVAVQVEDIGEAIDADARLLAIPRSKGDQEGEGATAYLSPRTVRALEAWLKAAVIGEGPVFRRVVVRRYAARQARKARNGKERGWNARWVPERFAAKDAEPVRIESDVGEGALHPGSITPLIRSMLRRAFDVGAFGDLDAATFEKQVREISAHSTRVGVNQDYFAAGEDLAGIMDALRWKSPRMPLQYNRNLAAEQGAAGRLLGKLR
To be noted: HEK293T inversion; background 0.81.

Data set [5] concerns T5, Rec22 WP_016392893.1 (Pseudomonas plecoglossicida).
T5 sequence: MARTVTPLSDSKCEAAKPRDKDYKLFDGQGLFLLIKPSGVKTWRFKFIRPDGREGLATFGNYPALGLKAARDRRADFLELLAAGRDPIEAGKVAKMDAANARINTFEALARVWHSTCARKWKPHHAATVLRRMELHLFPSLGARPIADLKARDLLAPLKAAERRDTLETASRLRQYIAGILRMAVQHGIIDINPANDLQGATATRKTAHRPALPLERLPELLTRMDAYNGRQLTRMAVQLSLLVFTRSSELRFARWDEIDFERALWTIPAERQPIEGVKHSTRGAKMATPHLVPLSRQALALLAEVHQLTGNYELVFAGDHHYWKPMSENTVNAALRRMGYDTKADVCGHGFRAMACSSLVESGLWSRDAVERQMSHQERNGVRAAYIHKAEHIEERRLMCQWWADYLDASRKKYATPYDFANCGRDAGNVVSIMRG
To be noted: HEK293T inversion; background 1.66.

Take “TAATGTCCAATANNNNNNNNTATCGGACATAA (double strand) [Rec21 natural site]”: the activity in data set [1] was determined as 4.75 % GFP+. The sequence “GCACTAGCGATANNNNNNNNTATCACTAGTGC (double strand) [Rec24 natural site]” returned an activity in data set [2] of 17.1 % GFP+. In turn, “TTATGTCCAATANNNNNNNNTATTGGACATAG (double strand) [Rec17-18 natural site]” gave an activity in data set [3] of 0.202 % GFP+. Regarding “GGACATGTGATANNNNNNNNTATCACATGTTG (double strand) [Rec23 natural site]”, the activity in data set [4] came out at 43.3 % GFP+.

For “GACCACTCCAGANNNNNNNNNTCTGGAGTGGTG (double strand) [Rec22 natural site]”, in data set [5], the activity was 1.45 % GFP+.
